Measured values as given in patent publication EP1659133.

Experiments:
[1] = molecular target: RSV F protein (C-terminal truncated) (respiratory syncytial virus, UniProt P03420); assay: SPR
[2] = molecular target: T1, RSV F protein from infected HEp2 cell lysate (respiratory syncytial virus, UniProt P03420); assay: ELISA, apparent (unit printed as 10mm)
[3] = molecular target: T1, RSV F protein from infected HEp2 cell …; assay: ELISA, apparent

RSV F protein (C-terminal truncated), sequence (P03420 26-524): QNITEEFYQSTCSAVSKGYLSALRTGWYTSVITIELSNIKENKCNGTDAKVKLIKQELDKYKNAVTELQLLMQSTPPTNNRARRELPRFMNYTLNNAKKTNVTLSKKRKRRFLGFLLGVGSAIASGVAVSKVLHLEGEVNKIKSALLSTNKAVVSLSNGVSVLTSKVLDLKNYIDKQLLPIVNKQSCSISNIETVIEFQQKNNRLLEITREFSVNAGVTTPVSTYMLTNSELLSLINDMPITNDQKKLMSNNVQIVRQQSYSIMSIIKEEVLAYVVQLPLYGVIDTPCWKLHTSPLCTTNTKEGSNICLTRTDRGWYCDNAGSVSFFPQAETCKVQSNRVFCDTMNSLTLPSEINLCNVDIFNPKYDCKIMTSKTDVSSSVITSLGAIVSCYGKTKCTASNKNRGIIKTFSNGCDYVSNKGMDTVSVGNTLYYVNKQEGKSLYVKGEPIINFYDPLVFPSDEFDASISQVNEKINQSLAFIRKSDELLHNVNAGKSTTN
T1 sequence (P03420 26-524): as above

Binder | Kd [1] [nM] | Kd [2] [nM] | Kd [3] [nM]
M1308F (antibody, V domains shown) VH: EVQLQQSGAELVRPGALVKLSCKASGFNIKDYYIYWVKQRPEQGLEWIGWIDPENGNTVFDPKFQGKASITSDTSSNTAYLQLSSLTSEDTAVYYCAYYGTSSFDFWGQGTTLTVSS VL: DIKMTQSPSSMYVSLGERVTITCKASQDINRYLNWFQQKPGKSPKTLIHRANRLVDGVPSRFSGSGSGQEYSLTISSLEFEDMGIYYCLQFHEFPYTFGGGTKLEIK | 1.1 |  | 
H1308F (antibody, V domains shown) VH: QVQLVQSGAEVKKPGASVKVSCKASGFNIKDYYIYWVRQAPGQGLEWIGWIDPENGNTVFDPKFQGRVTMTRDTSTSTVYMELSSLRSEDTAVYYCAYYGTSSFDFWGQGTTLTVSS VL: DIQMTQSPSTLSASVGDRVTITCKASQDINRYLNWYQQKPGKAPKLLIYRANRLVDGVPSRFSGSGSGTEFTLTISSLQPDDFATYYCLQFHEFPYTFGGGTKLEIK | 2.5 |  | 
CH1129 (M1129HuGamma1,Kappa) (antibody, V domains shown) VH: QVELQESGPGILQPSQTLSLTCSFSGFSLSTSGMSVGWIRQPSGEGLEWLADIWWDDKKDYNPSLKSRLTISKDTSSNQVFLKITGVDTADTATYYCARSMITNWYFDVWGAGTTVTVSS VL: DIQLTQSPAIMSASPGEKVTMTCSASSSVGYMHWYQQKSSTSPKLWIYDTSKLASGVPGRFSGSGSGNSYSLTISSIQAEDVATYYCFQGSGYPFTFGGGTKLEIK | 1.5 | 10 | 
M1129 (antibody, V domains shown) VH: QVELQESGPGILQPSQTLSLTCSFSGFSLSTSGMSVGWIRQPSGEGLEWLADIWWDDKKDYNPSLKSRLTISKDTSSNQVFLKITGVDTADTATYYCARSMITNWYFDVWGAGTTVTVSS VL: DIQLTQSPAIMSASPGEKVTMTCSASSSVGYMHWYQQKSSTSPKLWIYDTSKLASGVPGRFSGSGSGNSYSLTISSIQAEDVATYYCFQGSGYPFTFGGGTKLEIK | 11.4 |  | 
H1129 (humanized 1129) (antibody, V domains shown) VH: QVTLRESGPALVKPSQTLTLTCSFSGFSLSTSGMSVGWIRQPSGKALEWLADIWWDDKKDYNPSLKSRLTISKDTSKNQVVLKVTNVDPADTATYYCARSMITNWYFDVWGAGTTVTVSS VL: DIQMTQSPSTLSASVGDRVTITCKCQLSVGYMHWYQQKPGKAPKLWIYDTSKLASGVPSRFSGSGSGTEFTLTISSLQPDDFATYYCFQGSGYPFTFGGGTKLEIK | 1.4 |  | 0.7
